Results from FireProtDB (doi:10.1038/nsb0996-782).

Conditions: Escherichia coli (strain K12); pH 5.1; 25 °C; GdnHCl; NMR; Sodium acetate 100mM; whole UniProt chain shown

B1: Ribonuclease HI wild type, P0A7Y4 (protein)
chain: MLKQVEIFTDGSCLGNPGPGGYGAILRYRGREKTFSAGYTRTTNNRMELMAAIVALEALKEHCEVILSTDSQYVRQGITQWIHNWKKRGWKTADKKPVKNVDLWQRLDAALGQHQIKWEWVKGHAGHPENERCDELARAAAMNPTLEDTGYQVEV
Protein B1 has an unfolding free energy of 10.5 kcal/mol.
